Data on nine molecules can be found in patent US20110143953A1 (ARIZONA BOARD OF REGENTS A BODY CORPORATE OF THE STATE OF …, published 2011).

The target in assay [1] is T1, transferrin (UniProt P02787 20-698, randomly labelled at free amines with Alexa 555 in the peptide array screen; amine-coupled to the chip in SPR).
T1 construct: also called TRF
As to the kind of experiment: SPR (Biacore T100), transferrin immobilized, steady-state response.
Description: Flow rates and contact times are adjusted as necessary to provide the surface concentration of target desired for the intended application, and may vary by target. In general, for evaluating whether binding occurs, it is preferable to immobilize a relatively large quantity of target, and higher flow rates and/or longer contact times may be used. For determining kinetics, it is preferable to limit the amount of target immobilized so as to minimize rebinding and avidity effects, and lower flow rates and/or contact times may be used.
Candidate affinity elements for the transferrin synbody TRF19, TRF21, TRF23, TRF24, TRF25, and TRF26 were individually evaluated for solution phase KD with respect to transferrin by SPR analysis. […] For each experiment, response data were processed using a reference surface to correct for bulk refractive index changes and any non-specific binding. Data were also double referenced using responses from blank running buffer injections.

Assay [2] concerns the target T2, Gal80 (UniProt P04387 1-435, limits assumed, labelled with Cy3 or Cy5 in the peptide array screen).
T2 sequence (looked up): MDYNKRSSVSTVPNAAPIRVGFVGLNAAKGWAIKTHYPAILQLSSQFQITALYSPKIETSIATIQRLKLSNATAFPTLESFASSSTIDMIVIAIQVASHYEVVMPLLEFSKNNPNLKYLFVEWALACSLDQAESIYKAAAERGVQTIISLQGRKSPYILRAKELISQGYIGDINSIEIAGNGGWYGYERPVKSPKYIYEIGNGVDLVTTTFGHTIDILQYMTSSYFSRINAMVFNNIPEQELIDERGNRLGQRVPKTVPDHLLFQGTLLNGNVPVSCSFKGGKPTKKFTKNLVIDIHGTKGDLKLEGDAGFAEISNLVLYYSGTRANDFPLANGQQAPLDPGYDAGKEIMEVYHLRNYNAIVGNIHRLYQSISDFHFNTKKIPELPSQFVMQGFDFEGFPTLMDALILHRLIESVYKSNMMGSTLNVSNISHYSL
The assay can be described thus: SPR, synbody in solution (1 µM to 7.81 nM) on surface-bound Gal80; SPR, synbody in solution, surface-bound Gal80.

Assay [3] deals with T2, Gal80. As to the kind of experiment: gel shift assay; gel shift assay.
Assay [4] deals with T2, Gal80. The assay can be described thus: SPR, gal80 immobilised on the chip, Kd from on and off rates.

T1 sequence (P02787 20-698 limits assumed): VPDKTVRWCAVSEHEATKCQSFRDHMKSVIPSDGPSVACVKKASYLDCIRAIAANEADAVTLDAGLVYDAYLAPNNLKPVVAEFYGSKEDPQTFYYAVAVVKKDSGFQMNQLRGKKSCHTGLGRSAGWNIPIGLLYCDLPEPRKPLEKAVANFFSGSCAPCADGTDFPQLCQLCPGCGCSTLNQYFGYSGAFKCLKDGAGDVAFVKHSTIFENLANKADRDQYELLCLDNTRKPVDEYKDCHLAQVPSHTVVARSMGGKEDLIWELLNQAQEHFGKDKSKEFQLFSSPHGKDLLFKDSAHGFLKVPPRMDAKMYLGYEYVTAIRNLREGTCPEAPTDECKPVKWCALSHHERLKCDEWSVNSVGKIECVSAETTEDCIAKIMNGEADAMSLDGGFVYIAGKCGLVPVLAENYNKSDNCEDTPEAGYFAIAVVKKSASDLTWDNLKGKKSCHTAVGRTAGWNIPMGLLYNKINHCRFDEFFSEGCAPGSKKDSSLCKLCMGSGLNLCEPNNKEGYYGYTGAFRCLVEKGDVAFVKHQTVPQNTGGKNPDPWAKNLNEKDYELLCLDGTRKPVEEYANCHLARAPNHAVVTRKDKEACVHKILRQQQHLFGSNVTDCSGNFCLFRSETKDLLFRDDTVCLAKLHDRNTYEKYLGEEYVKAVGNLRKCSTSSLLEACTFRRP

As to SVKPWRPLLTGNRWLNSGSC [TRF24], the Kd in assay [1] is ~50 µM.

In the case of AHKVVPQRQIRHAYNRYGSC (20-mer random peptide) [TRF26], the Kd in assay [1] is ~100 µM.

Consider APYAPQQIHYWSTLGFKGSC (20-mer random peptide) [TRF25], for which the Kd in assay [1] was ~60 µM.

For the molecule FRGWAHIFFGPHVIYRGGSC (20-mer random peptide) [TRF23], the Kd in assay [1] is ~50 µM.

B1: linker-optimized BP1/BP2 DNA-linked synbody (BP1 on the template strand, BP2 at position 13 from the 3' end of the variable strand) (designed binder)
peptide 1: GTEKGTSGWLKTGSC
peptide 2: EGEWTEGKLSLRGSC
modifications: not fully specified; C-terminal cysteine conjugated through SMCC to the amine-modified cytosine at position 13 from the 3' end of the DNA variable strand (SEQ ID NO: 15); C-terminal cysteine conjugated through SMCC to the amine-modified 5' terminal cytosine of the DNA template strand (SEQ ID NO: 14)
notes: The two peptides are held about 5 nm apart by a double-stranded DNA linker; also called Gal80 synbody; gal80 synbody
Take B1: the values for the Kd in assay [2] and in assay [3] were 0.091 µM and ~0.1 µM, respectively.

Regarding QYHHFMNLKRQGRAQAYGSC (20-mer random peptide) [TRF21], in assay [1], the Kd was ~60 µM.

B2: TRF19 (peptide)
peptide: KEDNPGYSSEQDYNKLDGSC
notes: 20-mer random peptide; on the array it is attached by its C-terminal cysteine to the surface
Take B2: the Kd in assay [1] was ~150 µM.

B3: BP2 on dsDNA (peptide)
peptide: EGEWTEGKLSLRGSC
modifications: chain 1 pos 15: Cys thiol joined via SMCC maleimide to an amine-modified cytosine of the double-stranded DNA linker. The DNA cannot be carried by the letters.
notes: also called BP2 complexed by itself to the double-stranded DNA linker
In the case of B3, the Kd in assay [4] was found to be 0.982 µM.

B4: BP1 on dsDNA (peptide)
peptide: GTEKGTSGWLKTGSC
modifications: chain 1 pos 15: Cys thiol joined via SMCC maleimide to an amine-modified cytosine of the double-stranded DNA linker. The DNA cannot be carried by the letters.
notes: also called BP1 complexed by itself to the double-stranded DNA linker
As for B4, the Kd in assay [4] amounted to 0.482 µM.
